B1: Protein ECT2 (Homo sapiens), Q9H8V3 (parent)
chain: MAENSVLTSTTGRTSLADSSIFDSKVTEISKENLLIGSTSYVEEEMPQIETRVILVQEAGKQEELIKALKTIKIMEVPVIKIKESCPGKSDEKLIKSVINMDIKVGFVKMESVEEFEGLDSPEFENVFVVTDFQDSVFNDLYKADCRVIGPPVVLNCSQKGEPLPFSCRPLYCTSMMNLVLCFTGFRKKEELVRLVTLVHHMGGVIRKDFNSKVTHLVANCTQGEKFRVAVSLGTPIMKPEWIYKAWERRNEQDFYAAVDDFRNEFKVPPFQDCILSFLGFSDEEKTNMEEMTEMQGGKYLPLGDERCTHLVVEENIVKDLPFEPSKKLYVVKQEWFWGSIQMDARAGETMYLYEKANTPELKKSVSMLSLNTPNSNRKRRRLKETLAQLSRETDVSPFPPRKRPSAEHSLSIGSLLDISNTPESSINYGDTPKSCTKSSKSSTPVPSKQSARWQVAKELYQTESNYVNILATIIQLFQVPLEEEGQRGGPILAPEEIKTIFGSIPDIFDVHTKIKDDLEDLIVNWDESKSIGDIFLKYSKDLVKTYPPFVNFFEMSKETIIKCEKQKPRFHAFLKINQAKPECGRQSLVELLIRPVQRLPSVALLLNDLKKHTADENPDKSTLEKAIGSLKEVMTHINEDKRKTEAQKQIFDVVYEVDGCPANLLSSHRSLVQRVETISLGEHPCDRGEQVTLFLFNDCLEIARKRHKVIGTFRSPHGQTRPPASLKHIHLMPLSQIKKVLDIRETEDCHNAFALLVRPPTEQANVLLSFQMTSDELPKENWLKMLCRHVANTICKADAENLIYTADPESFEVNTKDMDSTLSRASRAIKKTSKKVTRAFSFSKTPKRALRRALMTSHGSVEGRSPSSNDKHVMSRLSSTSSLAGIPSPSLVSLPSFFERRSHTLSRSTTHLI
partner: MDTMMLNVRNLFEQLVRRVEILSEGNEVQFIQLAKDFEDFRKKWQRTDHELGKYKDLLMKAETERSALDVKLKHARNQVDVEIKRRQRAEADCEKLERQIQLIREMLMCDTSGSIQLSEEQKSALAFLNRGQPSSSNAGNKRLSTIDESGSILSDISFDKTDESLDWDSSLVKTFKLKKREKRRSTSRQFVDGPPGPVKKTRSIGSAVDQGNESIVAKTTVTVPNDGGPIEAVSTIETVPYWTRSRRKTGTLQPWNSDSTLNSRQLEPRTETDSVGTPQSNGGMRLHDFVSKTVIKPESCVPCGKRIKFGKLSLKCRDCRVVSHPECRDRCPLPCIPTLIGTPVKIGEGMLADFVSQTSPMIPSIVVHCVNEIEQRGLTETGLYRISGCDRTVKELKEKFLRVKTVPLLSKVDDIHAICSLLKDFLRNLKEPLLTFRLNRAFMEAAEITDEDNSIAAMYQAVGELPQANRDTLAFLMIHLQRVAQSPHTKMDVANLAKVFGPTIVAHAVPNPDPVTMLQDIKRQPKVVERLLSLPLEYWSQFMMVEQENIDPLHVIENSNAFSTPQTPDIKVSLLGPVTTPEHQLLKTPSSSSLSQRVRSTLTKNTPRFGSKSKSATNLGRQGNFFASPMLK
B2: Rac GTPase-activating protein 1 (Homo sapiens), Q9H0H5 (parent)
chain: B1 partner
partner: B1 chain

Variants of: B1
Settings: with rgap1_human RACGAP1, Q9H0H5

effect of a mutation on the interaction	Variant
disrupting interaction	V153A;L195M

Variants of: B1
Settings: with rgap1_human RACGAP1, Q9H0H5
Remark: another data set of the same source

effect of a mutation on the interaction	Variant
decreasing interaction	P163E

Variants of: B1
Settings: with rgap1_human RACGAP1, Q9H0H5
Remark: another data set of the same source

effect of a mutation on the interaction	Variant
disrupting interaction	L195M

Variants of: B1
Settings: with rgap1_human RACGAP1, Q9H0H5
Remark: another data set of the same source

effect of a mutation on the interaction	Variant
decreasing interaction	V153A

Variants of: B2
Settings: with ect2_human ECT2, Q9H8V3

effect of a mutation on the interaction	Variant
decreasing interaction	W167A

— IntAct's records for PubMed 25068414
